The record followed here is PMC4822818, “An IRF5 Decoy Peptide Reduces Myocardial Inflammation and Fibrosis and Improves Endothelial Cell Function in Tight-Skin Mice” (PLoS ONE, 2016).

For this assay, the target named is T1, Recombinant IRF5 (interferon regulatory factor 5), biotin-labeled (UniProt Q13568 1-498, biotin (EZ-Link NHS-PEG4-Biotin, ratio 1:1)).
T1 construct: Interferon regulatory factor 5 (IRF5), recombinant; also called B-IRF5; source: made and purified by Top Gene Technologies (Montreal, Quebec, Canada)
T1 sequence (looked up): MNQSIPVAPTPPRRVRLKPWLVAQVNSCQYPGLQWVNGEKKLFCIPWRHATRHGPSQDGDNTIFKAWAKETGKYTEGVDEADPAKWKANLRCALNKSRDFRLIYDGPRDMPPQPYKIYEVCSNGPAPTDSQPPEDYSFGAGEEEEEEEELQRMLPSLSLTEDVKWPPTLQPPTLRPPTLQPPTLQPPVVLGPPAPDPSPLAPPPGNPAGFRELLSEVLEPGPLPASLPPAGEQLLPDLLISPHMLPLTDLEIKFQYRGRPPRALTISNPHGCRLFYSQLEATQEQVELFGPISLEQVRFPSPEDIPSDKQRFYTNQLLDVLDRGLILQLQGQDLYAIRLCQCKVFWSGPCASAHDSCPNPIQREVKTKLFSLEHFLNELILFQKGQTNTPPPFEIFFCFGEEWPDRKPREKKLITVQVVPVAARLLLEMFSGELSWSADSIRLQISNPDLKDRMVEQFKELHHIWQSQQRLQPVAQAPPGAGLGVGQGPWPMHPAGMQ
Kind of assay: BLI; Octet RED; biotin-labeled IRF5 loaded onto streptavidin biosensors in PBS for 15 min; sensors incubated in PBS with increasing concentrations of IRF5D for 10 min; n = 3. The note with it: both partners purified. In general terms: BLI is a label-free optical method that tracks binding on a fibre tip over time.

B1: IRF5D (Ac-ELDWDADDIRLQIDNPD-NH2), IRF5 decoy peptide (peptide)
chain: Ac-ELDWDADDIRLQIDNPD-NH2
On to B1, for which the Kd (as a rule, the equilibrium constant for the complex coming apart) turned out to be 3.72 µM.
